Data taken from patent US20230287143A1.

What was measured:
CHO-K1/hu OX40 (human) = CHO-K1/hu OX40 (human) (UniProt P43489); test: FACS
human 4-1BB (human) [1] = target: human 4-1BB (human) (UniProt Q07011); test: FACS; panel A
human 4-1BB (human) [2] = target: human 4-1BB (human) (UniProt Q07011); test: FACS; panel C

human 4-1BB (human), sequence (Q07011 24-255): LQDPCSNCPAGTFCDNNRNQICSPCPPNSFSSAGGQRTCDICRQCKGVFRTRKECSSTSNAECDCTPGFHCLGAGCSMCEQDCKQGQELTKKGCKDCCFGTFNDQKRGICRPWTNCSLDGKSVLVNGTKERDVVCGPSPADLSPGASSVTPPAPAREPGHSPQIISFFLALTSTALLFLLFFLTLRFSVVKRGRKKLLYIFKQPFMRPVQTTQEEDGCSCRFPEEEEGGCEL
CHO-K1/hu OX40 (human), sequence (P43489 29-277): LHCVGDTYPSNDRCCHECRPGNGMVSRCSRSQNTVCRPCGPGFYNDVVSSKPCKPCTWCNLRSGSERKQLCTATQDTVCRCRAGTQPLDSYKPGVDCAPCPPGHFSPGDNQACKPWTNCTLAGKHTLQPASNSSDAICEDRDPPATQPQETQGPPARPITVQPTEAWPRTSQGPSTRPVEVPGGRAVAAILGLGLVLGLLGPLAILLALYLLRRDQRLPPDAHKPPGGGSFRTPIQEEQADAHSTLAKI

| Substance | EC50 (CHO-K1/hu OX40 (human)) [nM] | EC50 (human 4-1BB (human) [1]) [nM] | EC50 (human 4-1BB (human) [2]) [nM] |
| --- | --- | --- | --- |
| Pogalizumab | 1.15 |  |  |
| Anti-4-1BB monoclonal antibody Urelumab analog (hIgG4) |  | 0.347 | 1.01 |
